Consider one substance from publication doi:10.1101/2025.07.23.666473.

The target in the experiment is NaV1.5 (mouse (endogenous in heart)) (UniProt Q9JJV9). Put plainly: co-IP.
Sequence of UniProt Q9JJV9 (Q9JJV9 whole entry): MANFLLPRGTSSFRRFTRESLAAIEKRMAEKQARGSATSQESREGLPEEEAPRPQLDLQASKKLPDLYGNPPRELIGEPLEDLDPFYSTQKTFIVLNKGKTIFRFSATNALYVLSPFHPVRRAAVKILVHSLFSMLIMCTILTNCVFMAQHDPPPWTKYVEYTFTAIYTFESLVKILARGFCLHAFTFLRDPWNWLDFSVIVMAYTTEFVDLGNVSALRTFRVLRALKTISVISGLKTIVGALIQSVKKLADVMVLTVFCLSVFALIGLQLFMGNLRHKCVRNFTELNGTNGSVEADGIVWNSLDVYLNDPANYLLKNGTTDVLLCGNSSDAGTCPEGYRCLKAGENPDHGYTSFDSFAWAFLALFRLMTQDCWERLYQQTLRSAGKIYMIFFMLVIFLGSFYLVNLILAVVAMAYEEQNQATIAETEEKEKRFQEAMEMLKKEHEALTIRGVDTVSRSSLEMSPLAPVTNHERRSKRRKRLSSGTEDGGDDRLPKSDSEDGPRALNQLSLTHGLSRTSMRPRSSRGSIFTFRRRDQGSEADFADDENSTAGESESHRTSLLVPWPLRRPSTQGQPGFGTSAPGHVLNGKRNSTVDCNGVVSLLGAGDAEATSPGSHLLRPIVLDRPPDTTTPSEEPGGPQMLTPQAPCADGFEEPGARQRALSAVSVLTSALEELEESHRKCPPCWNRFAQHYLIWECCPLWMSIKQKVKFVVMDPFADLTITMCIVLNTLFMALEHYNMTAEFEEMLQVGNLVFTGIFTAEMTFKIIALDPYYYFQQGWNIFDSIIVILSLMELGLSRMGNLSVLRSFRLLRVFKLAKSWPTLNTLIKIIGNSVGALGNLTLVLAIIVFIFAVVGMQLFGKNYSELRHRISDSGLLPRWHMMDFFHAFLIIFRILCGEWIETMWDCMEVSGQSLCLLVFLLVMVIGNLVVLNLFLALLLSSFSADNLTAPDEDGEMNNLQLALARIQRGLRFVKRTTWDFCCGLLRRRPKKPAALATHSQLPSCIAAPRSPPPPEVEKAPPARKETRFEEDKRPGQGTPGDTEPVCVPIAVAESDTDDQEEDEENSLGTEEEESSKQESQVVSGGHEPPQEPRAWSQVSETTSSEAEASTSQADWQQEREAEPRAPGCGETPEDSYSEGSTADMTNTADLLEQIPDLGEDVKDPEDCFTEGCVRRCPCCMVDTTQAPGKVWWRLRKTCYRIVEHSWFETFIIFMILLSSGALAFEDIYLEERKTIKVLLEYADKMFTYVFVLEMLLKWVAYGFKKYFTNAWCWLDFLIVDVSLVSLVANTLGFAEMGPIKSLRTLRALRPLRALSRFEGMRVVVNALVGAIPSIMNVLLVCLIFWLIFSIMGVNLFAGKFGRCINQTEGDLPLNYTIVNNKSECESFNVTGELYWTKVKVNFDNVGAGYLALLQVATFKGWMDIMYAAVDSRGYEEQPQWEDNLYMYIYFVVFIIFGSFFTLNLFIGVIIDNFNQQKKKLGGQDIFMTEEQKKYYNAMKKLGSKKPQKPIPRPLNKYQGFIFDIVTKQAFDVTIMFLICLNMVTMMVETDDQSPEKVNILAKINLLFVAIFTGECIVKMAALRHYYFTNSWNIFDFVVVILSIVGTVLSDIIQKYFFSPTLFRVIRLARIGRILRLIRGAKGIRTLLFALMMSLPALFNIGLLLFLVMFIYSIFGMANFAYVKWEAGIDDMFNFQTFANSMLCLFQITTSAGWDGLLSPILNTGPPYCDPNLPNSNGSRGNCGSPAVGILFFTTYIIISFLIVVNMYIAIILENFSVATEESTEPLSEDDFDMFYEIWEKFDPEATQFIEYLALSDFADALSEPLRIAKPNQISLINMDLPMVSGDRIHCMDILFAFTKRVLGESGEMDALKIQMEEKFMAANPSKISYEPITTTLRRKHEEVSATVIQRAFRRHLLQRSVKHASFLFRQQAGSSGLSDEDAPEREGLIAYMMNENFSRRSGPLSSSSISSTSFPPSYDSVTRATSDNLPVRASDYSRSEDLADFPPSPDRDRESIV

“FGF13 (from UniProt P70377 1-245) (natural protein)” came in with a percent of total FGF13 depleted with NaV1.5 (in complex) of 35%.
